Test results from patent US20040115738A1 (INNATE PHARMA, published 2004).

How the values were obtained:
[1] = molecular target: T1, DAP12 (UniProt O43914 22-113); experiment: co-immunoprecipitation (data not shown)
T1 construct: Endogenous protein in NK cell lysates

[2] = molecular target: T2, FcεRIγ (UniProt P30273 19-86); experiment: co-immunoprecipitation (data not shown)
T2 construct: Endogenous protein in NK cell lysates; also called FcεFRIγ (as misprinted)
T2 sequence (looked up): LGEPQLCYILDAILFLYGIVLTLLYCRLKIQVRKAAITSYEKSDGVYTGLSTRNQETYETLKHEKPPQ

T1 sequence (O43914 22-113 limits assumed): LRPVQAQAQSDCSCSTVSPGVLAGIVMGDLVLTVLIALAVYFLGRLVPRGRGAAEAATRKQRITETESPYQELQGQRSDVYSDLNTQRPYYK

binding result [1]: no binding | binding result [2]: no binding
B1: NKp80 (receptor)
chain: MQDEERYMTLNVQSKKRSSAQTSCLTFKDYSVTLHWYKILLGISGTVNGILTLTLISLILLVSCGVLLKCQKGSCSNATQYEDTGDLKVNNGTRRNISNKDLCASRSADQTVLCQSEWLKYQGKCYWFSNEMKSWSDSYVYCLERKSHLLIIHDQLEMAFIQKNLRQLNYVWIGLNFTSLKMTWTWVDGSPIDSKIFFIKGPAKENSCAAIKESKIFSETCSSVFKWICQY
notes: 231 aa type II transmembrane protein; On the NK cell surface it is a dimer (80 kD non-reduced, about 40 kD reduced); Tested on human NK cells, in lysates of 125I-labeled NK cells, and on 293T cells transfected with VR1012-ML; also called MA152-reactive molecule; MA152 mAb-reactive molecule
